Assay results reported in patent US20250034594A1, “RNA-GUIDED GENOME RECOMBINEERING AT KILOBASE SCALE” (THE BOARD OF TRUSTEES OF THE LELAND STANFORD JUNIOR …, priority 2021, published 2025).

B1: Homolog_T14: RecT, Pseudobacteriovorax antillogorgiicola; SEQ ID NO: 139 (protein, listed as Pseudobacteriovorax antillogorgiicola)
chain: MGHLVSKTEQDYIKQHYAKGATDQEFEHFIGVCRARGLNPAANQIYFVKYRSKDGPAKPAFILSIDSLRLIAHRTGDYAGCSEPIFTDGGKACTVTVRRNLKSGETGNFSGMAFYDEQVQQKNGRPTSFWQSKPRTMLEKCAEAKALRKAFPQDLGQFYIREEMPPQYDEPIQVHKPKALEEPRFSKSDLSRRKGLNRKLSALGVDPSRFDEVATFLDGTPDRELGQKLKLWLKEAGYGVNQ
B2: Homolog_T15: RecT, Photobacterium sp. JCM 19050; SEQ ID NO: 141 (protein, listed as Photobacterium sp.)
chain: MNTDMIAMPPSPAISMLDTSKLDVMVRAAELMSQAVVMVPDHFKGKPADCLAVVMQADQWGMNPFTVAQKTHLVSGTLGYESQLVNAVISSSKAIKGRFHYEWSDGWERLAGKVQYVKESRQRKGQQGSYQVTVAKPTWKPEDEQGLWVRCGAVLAGEKDITWGPKLYLASVLVRNSELWTTKPYQQAAYTALKDWSRLYTPAVMQGSMTGKSWSLTGRLISPR
B3: Homolog_E10: RecE, Shigella sonnei; SEQ ID NO: 132 (protein, listed as Shigella sonnei)
chain: DRGLLTKEWRKGNRVSRITRTASGANAGGGNLTDRGEGFVHDLTSLARDIATGVLARSMDVDIYNLHPAHAKRIEEIIAENKPPFSVFRDKFITMPGGLDYSRAIVVASVKEAPIGIEVIPAHVTAYLNKVLTETDHANPDPEIVDIACGRSSAPMPQRVTEEGKQDDEEKLQPSGTTADEQGEAETMEPDATKHHQDTQPLDAQSQVNSVDAKYQELRAELHEARKNIPSKNPVDADKLLAASRGEFVDGISDPNDPKWVKGIQTRDSVYQNQPETEKTSPDMKQPEPVVQQEPEIAFNACGQTGGDNCPDCGAVMGDATYQETFDEENQVEAKENDPEEMEGAEHPHNENAGSDPHRDCSDETGEVADPVIVEDIEPGIYYGISNENYHAGPGVSKSQLDDIADTPALYLWRKNAPVDTTKTKTLDLGTAFHCRVLEPEEFSNRFIVAPEFNRRTNAGKEEEKAFLMECASTGKMVITAEEGRKIELMYQSVMALPLGQWLVESAGHAESSIYWEDPETGILCRCRPDKIIPEFHWIMDVKTTADIQRFKTAYYDYRYHVQDAFYSDGYEAQFGVQPTFVFLVASTTIECGRYPVEIFMMGEEAKLAGQLEYHRNLRTLADCLNTDEWPAIKTLSLPRWAKEYAND
B4: Homolog_T13: RecT, Salmonella enterica subsp. enterica serovar Javiana str. 10721; SEQ ID NO: 137 (protein, listed as Salmonella enterica)
chain: MPKQPPIAKADLQKTQGARTPTAVKNNNDVISFINQPSMKEQLAAALPRHMTAERMIRIATTEIRKVPALGDCDTMSFVSAIVQCSQLGLEPGGALGHAYLLPFGNRNEKSGKKNVQLIIGYRGMIDLARRSGQIASLSARVVREGDDFSFEFGLEEKLVHRPGENEDAPVTHVYAVARLKDGGTQFEVMTRKQIELVRAQSKAGNNGPWVTHWEEMAKKTAIRRLFKYLPVSIEIQRAVSMDEKETLTIDPADASVITGEYSVVENAGVEENVTA
B5: Homolog_E11: RecE, Salmonella enterica; SEQ ID NO: 134 (protein, listed as Salmonella enterica)
chain: DRGLLTKEWRKGNRVSRITRTASGANAGGGNLTDRGEGFVHDLTSLARDVATGVLARSMDVDIYNLHPAHAKRVEEIIAENKPPFSVFRDKFITMPGGLDYSRAIVVASVKEAPIGIEVIPAHVTEYLNKVLTETDHANPDPEIVDIACGRSSAPMPQRVTEEGKQDDEEKPQPSGAMADEQATAETVEPNATEHHQNTQPLDAQSQVNSVDAKYQELRAELQEARKNIPSKNPVDADKLLAASRGEFVDGISDPNDPKWVKGIQTRDSVYQNQPETEKISPDAKQPEPVVQQEPETVCNACGQTGGDNCPDCGAVMGDATYQETFGEENQVEAKEKDPEEMEGAEHPHNENAGSDPHRDCSDETGEVADPVIVEDIEPGIYYGISNENYHAGPGVSKSQLDDIADTPALYLWRKNAPVDTTKTKTLDLGTAFHCRVLEPEEFSNRFIVAPEFNRRTNAGKEEEKAFLMECASTGKTVITAEEGRKIELMYQSVMALPLGQWLVESAGHAESSIYWEDPETGILCRCRPDKIIPEFHWIMDVKTTADIQRFKTAYYDYRYHVQDAFYSDGYEAQFGVQPTFVFLVASTTVECGRYPVEIFMMGEEAKLAGQQEYHRNLRTLADCLNTDEWPAIKTLSLPRWAKEYAND
B6: Homolog_T12: RecT, Acetobacter; SEQ ID NO: 135 (protein, listed as Acetobacter sp.)
chain: MNAPQKQNTRAAVKKISPQEFAEQFAAIIPQVKSVLPAHVTFEKFERVVRLAVRKNPDLLTCSPASLFMACIQAASDGLLPDGREGAIVSRWSSKKSCNEASWMPMVAGLMKLARNSGDIASISSQVVFEGEHFRVVLGDEERIEHERDLGKTGGKIVAAYAVARLKDGSDPIREIMSWGQIEKIRNTNKKWEWGPWKAWEDEMARKTVIRRLAKRLPMSTDKEGERLRSAIERIDSLVDISANVDAPQIAADDEFAAAAHGVEPQQIAAPDLIGRLAQMQSLEQVQDIEPQVSHAIQEADKRGDSDTANALDAALQSALSRTSTAKEEVPA
B7: Homolog_E14: RecE, Pseudobacteriovorax antillogorgiicola; SEQ ID NO: 140 (protein, listed as Pseudobacteriovorax antillogorgiicola)
chain: MSKLSNLKVSNSDVDTLSRIRMKEGVYRDLPIESYHQSPGYSKTSLCQIDKAPIYLKTKVPQKSTKSLNIGTAFHEAMEGVFKDKYVVHPDPGVNKTTKSWKDFVKRYPKHMPLKRSEYDQVLAMYDAARSYRPFQKYHLSRGFYESSFYWHDAVTNSLIKCRPDYITPDGMSVIDFKTTVDPSPKGFQYQAYKYHYYVSAALTLEGIEAVTGIRPKEYLFLAVSNSAPYLTALYRASEKEIALGDHFIRRSLLTLKTCLESGKWPGLQEEILELGLPFSGLKELREEQEVEDEFMELVG
B8: Homolog_E13: RecE, Salmonella enterica subsp. enterica serovar Javiana str. 10721; SEQ ID NO: 138 (protein, listed as Salmonella enterica)
chain: MYYDIPNEAYHAGPGVSKSQLDDIADTPAIYLWRKNAPVDTEKTKSLDTGTAFHCRVLEPEEFSKRFIIAPEFNRRTSAGKEEEKTFLEECTRTGRTVLTAEEGRKIELMYQSVMALPLGQWLVESAGYAESSVYWEDPETGILCRCRPDKIIPEFHWIMDVKTTADIQRFRTAYYDYRYHVQDAFYSDGYRAQFGEIPTFVFLVASTTAECGRYPVEIFMMGEDAKLAGQREYRRNLQTLAECLNNDEWPAIKTLSLPRWAKENANA
B9: Homolog_E12: RecE, Acetobacter; SEQ ID NO: 136 (protein, listed as Acetobacter sp.)
chain: MVISKSGIYDLTNEQYHADPCPEMSLSSSGARDLLSSCPAKFIAAKQLPQQNKRCFDIGSAGHLMVLEPHLFDQKVCEIKHPDWRTKAAKEERDAAYAEGRIPLLSREVEDIRAMHSVVWRDSLGARAFSGGKAEQSLVWRDEEFGIWCRLRPDYVPNNAVRIFDYKTATNGSPDAFMKEIYNRGYHQQAAWYLDGYEAVTGHRPREFWFVVQEKTAPFLLSFFQMDEMSLEIGRTLNRQAKGIFAWCLRNNCWPGYQPEVDGKVRFFTTSPPAWLVREYEFKNEHGAYEPPEIKRKEVA
B10: Homolog_E15: RecE, Photobacterium sp. JCM 19050; SEQ ID NO: 142 (protein, listed as Photobacterium sp.)
chain: MAERVRTYQRDAVFAHELKAEFDEAVENGKTGVTLEDQARAKRMVHEATTNPASRNWFRYDGELAACERSYFWRDEEAGLVLKARPDKEIGNNLIDVKSIEVPTDVCACDLNAYINRQIEKRGYHISAAHYLSGTGKDRFFWIFINKVKGYEWVAIVEASPLHIELGTYEVLEGLRSIASSTKEADYPAPLSHPVNERGIPQPLMSNLSTYAMKRLEQFREL
B11: Homolog_T11: RecT, Salmonella enterica; SEQ ID NO: 133 (protein, listed as Salmonella enterica)
chain: MTKQPPIAKADLQKTQGNRAPAAVNDKDVLCVINSPAMKAQLAAALPRHMTAERMIRIATTEIRKVPELRNCDSTSFIGAIVQCSQLGLEPGSALGHAYLLPFGNGKAKNGKKNVQLIIGYRGMIDLARRSGQIISLSARVVRECDEFSYELGLDEKLVHRPGENEDAPITHVYAVAKLKDGGVQFEVMTKKQVEKVRDTHSKAAKNAASKGASSIWDEHFEDMAKKTVIRKLFKYLPVSIEIQRAVSMDGKEVETINPDDISVIAGEYSVIDNPEE

Assays:
[1] = test system: DYNLT1 locus; test: mKate knock-in gene-editing assay, RecE/RecT homologs, DYNLT1 locus; format: cell-based, human; settings: HEK293 cells, MCP fusion, n=3
Method: (§1) Transfection HEK293T cells were seeded into 96-well plates (Corning) 12-24 hours prior to transfection at a density of 30,000 cells/well, and 250 ng of total DNA was transfected per well. HeLa and HepG2 cells were seeded into 48-well plates (Corning) one day prior to transfection at a density of 50,000 and 30,000 cells/well respectively, and 400 ng of total DNA was transfected per well. Transfections were performed with Lipofectamine 3000 (Life Technologies) following the manufacturer's instructions.
(§2) Fluorescence-activated cell sorting (FACS) mKate knock-in efficiency was analyzed on a CytoFLEX flow cytometer (Beckman Coulter; Stanford Stem Cell FACS Core). 72 hours after transfection, cells were washed once with PBS and dissociated with TrypLE Express Enzyme (Thermo Fisher Scientific). Cell suspension was then transferred to a 96-well U-bottom plate (Thermo Fisher Scientific) and centrifuged at 300×G for 5 minutes. After removing the supernatant, pelleted cells were resuspended with 50 μl 4% FBS in PBS, and cells were sorted within 30 minutes of preparation.
(§3) 15 different species of microbes having RecE/RecT proteins were selected for a screen of various RecE and RecT proteins across the microbial kingdom (Table 3). Each protein was codon-optimized and synthesized. As previously described for E. coli RecE/RecT based REDIT systems, each protein was fused via E-XTEN linker to the MCP protein with additional nuclear localization signal. mKate knock-in gene-editing assay was used to measure efficiencies at DYNLT1 locus (FIG. 26A, Table 4) and HSP90AA1 locus (FIG. 26B, Table 4).

[2] = test system: HSP90AA1 locus; test: mKate knock-in gene-editing assay, RecE/RecT homologs, HSP90AA1 locus; format: cell-based, human; settings: HEK293 cells, MCP fusion, n=3
Method: as §1, §2, §3

| Molecule | Mean mKate+ (%), DYNLT1 [1] [%] | Mean mKate+ (%), HSP90AA1 [2] [%] |
| --- | --- | --- |
| B1 | 6.7700 | 4.7200 |
| B2 | 7.8033 | 5.2333 |
| B3 | 4.4000 | 3.5900 |
| B4 | 9.9567 | 5.7200 |
| B5 | 7.0567 | 3.1167 |
| B6 | 8.5900 | 5.2733 |
| B7 | 6.0167 | 5.7100 |
| B8 | 5.6333 | 5.6900 |
| B9 | 5.2633 | 6.0800 |
| B10 | 5.0700 | 6.0500 |
| B11 | 9.8467 | 4.9233 |
